Experimental data: the supplement of paper PMC9170038

System: MS2 coat protein
Test: apparent KD of MS2 coat protein; higher = weaker reporter binding
Settings: Eterna round: R107; input ligand: arginine 13.2 mM
Summary of the method: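 With or without constant ligand, designed RNA switches in 100 mM Tris-HCl pH 7.5, 80 mM KCl and 4 mM MgCl2 were titrated with SNAP-549-labelled MS2 coat protein. Concentrations went up in twofold steps from 0.7 or 1.5 nM to 3 µM. The switches had been transcribed on-chip from Illumina sequencing clusters, and apparent KD is the per-design median of normalised cluster binding-curve fits.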

| Sequence | apparent KD of MS2 coat protein [µM] |
| --- | --- |
| CUCUUCCGGAAGGAUACCAGCUACAUGAGGAUCACCCAUGUAGGAGCGGGUUUCUAAUGUAGCCCUUGGCAGCCUUAGCCCGUCG [Querarra] | 0.0159 |
| CCGUAGCUAGGAAGGAGCGCAUACUUCACAUGAGGAUCACCCAUGUCGAGACGUGAGUCAGUGCAGGUAGGUCGCCUAGCUAUGG [Same State - Arginine B (Freestyle 28)] | 0.0235 |
| UGUCAGCGAAAGUUGACAUGUCUUACCGGUCGAGGACCGGUACGGCCGCCACUCGAUCUCUCGCACAUGAGGAUCACCCAUGUCG [SS Tryp A #17] | 0.0128 |
| ACAUGAGGAUCACCCAUGUAAUUAACAGAAGGAGCGUGAUGGAUCACAGGUAGGUCGCUGUACUUAGAAAUAACUCUCAUGAAUA [JR_Nu_SSArginiA_Sub024] | 0.0152 |
| GGAGUAGGAAACUAUUCCAAUCCUCGUGAACGAGGACCGGUACGGCCGCCACUCGAUAAAUAAAUACAUGAGGAUCACCCAUGUA [Ex Tryptophan A 22] | 0.02 |
| AGUUGCGUUGGAAGGAGCGGCAUGUGUGGGCCUCCUUACAAUACAUGAGGAUCACCCAUGUGCCAGGUAGGUCGCCAACACAGGU [Tiedmaqu] | 0.0479 |
| UGACAUUGCUGCGAUACCAGACAUGAGGAUCACCCAUGUGCCAAAUAAACGUACAUAAAUGUCCCUUGGCAGCGCAGCAAUGUCU [MAT - Exclusion Theophlline B - Mod of Eli - D29] | 0.0449 |
| UUUUUCGCGGGCGAUACCAGCUUGAUCGUACUGGCCUGGUACAUGAGGAUCACCCAUGUAAGCCCUUGGCAGCGCGCGGGAGAAG [Exclusion - Theophylline B Attempt #1 (HarryS)] | 0.0115 |
| ACACAUGAGGAUCACCCAUGUGCGCUGGAAGGAGCGCAGAAUCAUGCAGGUAGGUCGCCAGUGCCCAUUACUAGAGGGAUAAGAG [Onriri] | 0.0445 |
| ACAUGAGGAUCACCCAUGUCUGCCACUGAUACCAGCGGAAGCCAACGCCCUUGGCAGCAGAACAUGAGGAUCACCCAUGUAGGCA [Same State Theophylline A GF26] | 0.0528 |
| ACAUUUAACUGAAGGAGCGUGAUAUGUACAUGAGGAUCACCCAUGUCUUACAUGUGAUAUUCACAGGUAGGUCGCAGACUAAUGA [JR_ExcArginiB_Sub004] | 0.0227 |
| ACAUGAAGAACAGCGGUGGGCGCGCUCGAUACCAGUACUUUGAAAUACCCUUGGCAGCGACAUGAGGAUCACCCAUGUGAGAUGA [XTheo A #3] | 0.013 |
| UGAUGGUACGGAAGGAGCGUGUAAGAACAAGAACAUGAGGAUCACCCAUGUAUUAAUUUAACACAGGUAGGUCGCCGAGUUAUUG [11.G] | 0.0178 |
| CUGUACAUCUCGGCCGCCACUGACAUGAGGAUCACCCAUGUAGUGCCGAUGAGAGACUUAUCGGCCAGGACCGGGAGGUGUGCAG [SSTryp B #32] | 0.00757 |
| GGACUAACCAGAAGGAGCGACACGCAGAAACUGCAAAUUCCUCUGCACGAGGAUCACCCGUGUCAGGUAGGUCGCUGGUUAGUCG | 0.0299 |
| GCACGACAUGAGGAUCACCCAUGUGCAGAUACCAGUAGGAUAUCCUACCCUUGGCAGCUGAGUAGAUCUGGAGGACUAUAGGUAA [Same State Theophylline A GF9] | 0.0155 |
| AGUGUAUCCAUCGAUACCAGCCACAACGUAACAUACACAUGAGGAUCACCCAUGUUGUGUGGCCCUUGGCAGCGGUGCCUGUGUA [Same State - Theophylline B Attempt #1 (HarryS)] | 0.0144 |
| CAUCAUGGGCUUGGACAAAUUGUGCUUGAUACCAGAAAUCACCGGUUCCCUUGGCAGCAACCCACAUGAGGAUCACCCAUGUGGA [theeternabot_exclusion_MS2_Theo_A_4] | 0.0186 |
| UAGAAGAACAUGCGGGCUCCGGACGGUGAUACCAGAUCGAAAAGGAUCCCUUGGCAGCACUGCACAUGAGGAUCACCCAUGUGCA [theeternabot_exclusion_MS2_Theo_A_7] | 0.0118 |

| Sequence | apparent KD of MS2 coat protein [µM] |
| --- | --- |
| ACAUGAGGAUCACCCAUGUAUUACCGGGAAGGAGCGGCCGGAAGGCCAGGUAGGUCGCUCGGCGUCGUGCUGUAAAGCACGACGA [#1 Same State - Arginine A Attempt #27 (HarryS)] | 0.00895 |
| AUACAUGAGGAUCACCCAUGUGAUGGCCGGCGAGGACCGGUACGGCCGCCACUCGUGAUCCGUCCUGAGAGCAAAGCCCUCAACA [Lequcele] | 0.0801 |
| AAACGACAUGAGGAUCACCCAUGUGCCGAUACCAGCCGGAUAUACGGCCCUUGGCAGCGGAGUAAAUCCGGAGGACAAUGGGUAA [Same State Theophylline A GF6] | 0.0377 |
| AAUUGGCACUGAAGGAGCGAGUUUACCUAAAUAACAUGAGGAUCACCCAUGUAAAAUGGGACUCAGGUAGGUCGCAGUUGUCAAA [Same State Arginine B GF 22] | 0.048 |
| GCUUGGGUGGCACAGCCCUGGCAGUGCGAUACCAGCACGGUAACGUGCCCUUGGCAGCGCACAUGAGGAUCACCCAUGUGGUGCG [#1 Exclusion - Theophylline A Attempt #25 (HarryS)] | 0.0287 |
| AUAAAUAAUAAAUAAGAUAAAAUGGGUGAACGAGGACCGGUACGGCCGCCACUCGGACAUGAGGAUCACCCAUGUCCAUGUGAAA [#22 Exclusion Tryptophan A] | 0.014 |
| AAAACAAACUCGGCCGCCACUCCCUCCCACCCAAGGACAUGAGGAUCACCCAUGUGGCAAAGCCCGAGGACCGGGAGAAACAAAA [Same State - Trytophan B] | 0.0181 |
| AUGUAGAACCGAAGGAGCGCGAUAACAUGAGGAUCACCCAUGUAGCUUUGGUGGCCUCGAUCGCAGGUAGGUCGCGGAAGUAGUA [Exclusion - Arginine B / A] | 0.0408 |
| CCUCACGAAAUCGAUGAAAGCAUGUGGCACCGAGGACCGGUACGGCCGCCACUCGCAUCCACACAUGAGGAUCACCCAUGUAAGA [theeternabot_exclusion_MS2_Trp_A_9] | 0.0273 |
| AUGCAUAGCGGAAGGAGCGCAAUAGAAUGACAUGAGGAUCACCCAUGUAUGUGAUGUGGGUUGCAGGUAGGUCGCCGAGUGGUAU [Exclusion - Arginine B (Freestyle 1)] | 0.0707 |
| CUUGAUAACUGAAGGAGCGAGAAACCCUACAUGAGGAUCACCCAUGUAUACACGGGAACUUCUCAGGUAGGUCGCAGUAUGUCAA [Teveor] | 0.0906 |
| AAUAACAUGAGGAUCACCCAUGUAAAAGAUACCAGAUGCAUGAUGAUCCCUUGGCAGCUUAACGCUGAUUGGAAACAAUCAGCGA [Mat - Same State Theophlline A - Mod of Eli - D9] | 0.175 |
| CAAGAAUGACGUACAGAUAACAAUAACGAUACCAGUACAUCAUUAUACCCUUGGCAGCGUUUCACAUGAGGAUCACCCAUGUACA [theeternabot_exclusion_MS2_Theo_A_14] | 0.0154 |
| UGUAUGGAAACAUGAGGAUCACCCAUGUGGCGAGGACCGGUACGGCCGCCACUCGAGCAGCAAGCGUGUAUGACGCUGCUGCAUG [SS-trypA-0] | 0.0273 |
| CAUAUAUAUAGAAGGAGCGUCGAAAAUGGGUAAACAUGAGGAUCACCCAUGUAAAGGGAACGACAGGUAGGUCGCUAUAUAUAUG [AstromonsSSArgB#3] | 0.0991 |
| CGACACAUGAGGAUCACCCAUGUAAUGACGCGAGGACCGGUACGGCCGCCACUCGCAUGCCAAUGAGCGCAUGCGGCCUGGGUAU [Exclusion Tryp A GF6] | 0.0175 |
| GGAUAGGACACGGCCGCCACUACCUAGGAUACUAGCAACAUUUGGGUACGUGAGGAUCACCCACGUAGGACCGGGUGUCCUAUCG | 0.0152 |
| GCACUACAUGAGGAUCACCCAUGUGCAGAUACCAGAGGUGUAUGCCUCCCUUGGCAGCUGCGUCGCUCUGGAAGCCUAUUGGUUU [Same State Theophylline A GF16] | 0.0158 |
| AAUAAACAUGAGGAUCACCCAUGUAUGGAAGGAGCGGUGAAUAAACCAGGUAGGUCGCCAGUGUGAGGGUCAUCUAUGUAAUCAA [Exclusion - Arginine A (Freestyle 3)] | 0.0291 |

Same assay, conditions: Eterna round: R107; input ligand: none

| Sequence | apparent KD of MS2 coat protein [µM] |
| --- | --- |
| CCGUAGCUAGGAAGGAGCGCAUACUUCACAUGAGGAUCACCCAUGUCGAGACGUGAGUCAGUGCAGGUAGGUCGCCUAGCUAUGG [Same State - Arginine B (Freestyle 28)] | 0.0155 |
